Values quoted from earlier work in paper PMC11815838.

Target: Her2 (ErbB2) ectodomain (UniProt P04626)
Test: SPR (surface plasmon resonance)
Conditions: not stated (pH 7.4 and pH 5.0 running conditions; buffers given only in ref 2)

Substance	KD (pH 5.0)	KD (pH 7.4)
bH1 Fab variant P1 (H-N28H) H-N28H	16 nM	3.5 nM
bH1 Fab variant P4 (H-Y56H) H-Y56H	–	170 nM
bH1 Fab variant P7 (L-R30aH) L-R30aH	17 nM	5.7 nM
bH1 Fab variant P8 (L-S30bH) L-S30bH	9.9 nM	3.4 nM

Now from value to substance:

KD (pH 5.0)	KD (pH 7.4)	Substance
1200 nM	120 nM	bH1 Fab variant P2 (H-Y33H) H-Y33H
98 nM	310 nM	bH1 Fab variant P5 (H-R58H) H-R58H
–	10 nM	bH1 Fab variant P6 (H-Y100aH) H-Y100aH
